From US12173330B2, “Method for producing hydroxy-L-pipecolic acid” (API CORPORATION, priority 2015, dated 2024)

Assays:
[1] = substrate: O=C(O)[C@@H]1CCCCN1; assay: purified protein, by the assay type; details: other: substrate: L-pipecolic acid, 20 mmol/L 2-oxoglutaric acid, 30° C.
[2] = substrate: O=C(O)[C@@H]1CCCN1; assay: purified protein, by the assay type; details: other: substrate: L-proline, 20 mmol/L 2-oxoglutaric acid, 30° C.

Row | Protein | Km [1] | Vmax [1] | Km [2] | Vmax [2]
1 | Xenorhabdus doucetiae FRM16 L-proline cis-4-hydroxylase XdPH, SEQ ID NO: 8 (Xenorhabdus doucetiae) (protein) MMSAKLLASIELNQEQIEHDLNIVGSEILDVAYSEYACGNWGTITLWNHSGDAGDQTSREYVGQARPTELGQQLDCINQLIRNNFNISLIKSVRIFRSYNGGAIYPHIDYLEFNQGFKRVHLVLKSDRSCLNSEENTVYHMLPGEVWFVDGHSAHSAMSLSRVGKYSLVLDFDSGAKFEDLYSESHTLCVDNLEPDIIHDRQPLPTSLRDSLAHIAEHADEFNIQSILFLATRFHFSYAVSIREYFQLLDECFSRNPYKSVRERYEALKDILVRSGYTSHNVNHFNSLSGVTIG | 300 µM | 1.14 U/mg-protein | 310 µM | 
2 | Catenulispora acidiphila NBRC102108 L-proline cis-4-hydroxylase CaPH, SEQ ID NO: 6 (Catenulispora acidiphila DSM 44928) (protein) MRTQYVAALELDEGRLAKDLETSASFNYSEAYSNYLIGGPWKSAMLYSAGGDAGDGLLTDYDYRQSSDFTDYGRQMPYLQELISTSVDLSRLTFVRLARFAKSVIVPHRDFLELEEIPEDKRSAHRLHIPLATHEECFFSEDNVVYRMRAGELWYFDASRIHSVVSFAEEPRIHLIFDFADRPGAGSLVTVPGEPEGAGVPAASAVDRPQLSDAERAALARLADVLTMDTFSEIFSVLVKKHFRRDGGEHFVWDTLTALARACPDPAVLPHTQELRRYFTLERPSGSGQA |  |  | 8870 µM | 0.02 U/mg-protein
3 | Sinorhizobium meliloti 1021 L-proline cis-4-hydroxylase SmPH, SEQ ID NO: 10 (Sinorhizobium meliloti 1021) (protein) MSTHFLGKVKFDEARLAEDLSTLEVAEFSSAYSDFACGKWEACVLRNRTGMQEEDIVVSHNAPALATPLSKSLPYLNELVETHFDCSAVRYTRIVRVSENACIIPHSDYLELDETFTRLHLVLDTNSGCANTEEDKIFHMGLGEIWFLDAMLPHSAACFSKTPRLHLMIDFEATAFPESFLRNVEQPVTTRDMVDPRKELTDEVIEGILGFSIIISEANYREIVSILAKLHFFYKADCRSMYDWLKEICKRRGDPALIEKTASLERFFLGHRERGEVMTY | 310 µM | 0.03 U/mg-protein | 580 µM | 
